Measurements from PMC6703679.

Target: extracellular signal-regulated kinase (ERK1/2), endogenous in mouse spinal dorsal horn (mouse (endogenous in spinal dorsal horn)) (UniProt P63085)

B1: glycine receptor α1^ins subunit, endogenous in mouse spinal dorsal horn (receptor)
chain: ARSAPKPMSPSDFLDKLMGRTSGYDARIRPNFKGPPVNVSCNIFINSFGSIAETTMDYRVNIFLRQQWNDPRLAYNEYPDDSLDLDPSMLDSIWKPDLFFANEKGAHFHEITTDNKLLRISRNGNVLYSIRITLTLACPMDLKNFPMDVQTCIMQLESFGYTMNDLIFEWQEQGAVQVADGLTLPQFILKEEKDLRYCTKHYNTGKFTCIEARFHLERQMGYYLIQMYIPSLLIVILSWISFWINMDAAPARVGLGITTVLTMTTQSSGSRASLPKVSYVKAIDIWMAVCLLFVFSALLEYAAVNFVSRQHKELLRFRRKRRHHKSPMLNLFQDDEGGEGRFNFSAYGMGPACLQAKDGISVKGANNNNTTNPPPAPSKSPEEMRKLFIQRAKKIDKISRIGFPMAFLIFNMFYWIIYKIVRREDVHNK
  GlyR-IPSCs in spinal slices from formalin-injected mice, with bath application of TAT-pep-α1^ins (% of baseline): 145
